Reference: patent US20190142971A1, “FORMULATION AND DELIVERY OF MODIFIED NUCLEOSIDE, NUCLEOTIDE, AND NUCLEIC ACID COMPOSITIONS” (ModernaTX, Inc., priority 2013, published 2019)

Test system: mice
Assay: Example 40: multi-site IM/SC G-CSF mRNA in mice, neutrophil count (Table 65)
Assay type: in vivo
Settings: intramuscular, day 3
Experimental: Injection of four doses or 2×50 ug (two sites) daily for three days (24 hrs interval) was performed. The fourth dose was administered 6 hrs before blood collection and CBC analysis. […] The mice were bled at 72 hours after the first mRNA injection (6 hours after the last mRNA dose) to determine the effect of mRNA-encoded human G-CSF on the neutrophil count. The dosing regimen is shown in Table 65 as are the resulting neutrophil counts (thousands/uL). In Table 65, an asterisks (*) indicate statistical significance at p<0.05.

B1: G-CSF: modified mRNA encoding human G-CSF, SEQ ID NO: 4, Cap1, fully modified with 5-methylcytosine and pseudouridine; LNP-formulated in Examples 16-22 (nucleic acid)
chain: GGGAAAUAAGAGAGAAAAGAAGAGUAAGAAGAAAUAUAAGAGCCACCAUGGCCGGUCCCGCGACCCAAAGCCCCAUGAAACUUAUGGCCCUGCAGUUGCUGCUUUGGCACUCGGCCCUCUGGACAGUCCAAGAAGCGACUCCUCUCGGACCUGCCUCAUCGUUGCCGCAGUCAUUCCUUUUGAAGUGUCUGGAGCAGGUGCGAAAGAUUCAGGGCGAUGGAGCCGCACUCCAAGAGAAGCUCUGCGCGACAUACAAACUUUGCCAUCCCGAGGAGCUCGUACUGCUCGGGCACAGCUUGGGGAUUCCCUGGGCUCCUCUCUCGUCCUGUCCGUCGCAGGCUUUGCAGUUGGCAGGGUGCCUUUCCCAGCUCCACUCCGGUUUGUUCUUGUAUCAGGGACUGCUGCAAGCCCUUGAGGGAAUCUCGCCAGAAUUGGGCCCGACGCUGGACACGUUGCAGCUCGACGUGGCGGAUUUCGCAACAACCAUCUGGCAGCAGAUGGAGGAACUGGGGAUGGCACCCGCGCUGCAGCCCACGCAGGGGGCAAUGCCGGCCUUUGCGUCCGCGUUUCAGCGCAGGGCGGGUGGAGUCCUCGUAGCGAGCCACCUUCAAUCAUUUUUGGAAGUCUCGUACCGGGUGCUGAGACAUCUUGCGCAGCCGUGAAGCGCUGCCUUCUGCGGGGCUUGCCUUCUGGCCAUGCCCUUCUUCUCUCCCUUGCACCUGUACCUCUUGGUCUUUGAAUAAAGCCUGAGUAGGAAG
modifications: Cap1, 5-methylcytosine, pseudouridine
- increase in neutrophil count above control: four fold increase
